Laboratory results: paper PMC12355471, “Clear Native Gel Electrophoresis for the Purification of Fluorescently Labeled Membrane Proteins in Native Nanodiscs” (Analytical Chemistry, 2025)
Read-outs that look alike come from different tables or passages of the source.

Assays:
[1] = biological target: voltage-gated potassium ion channel KvAP (Aeropyrum pernix) (UniProt Q9YDF8); test: native gel or EMSA; detergent-free clear native PAGE (CNE) of Glyco-DIBMA nanodiscs, 4 °C, fluorescence imaging
[2] = biological target: voltage-gated potassium ion channel KvAP (Aeropyrum pernix) (UniProt Q9YDF8); test: SEC; Glyco-DIBMA native nanodiscs with labelled protein after Ni2+ affinity chromatography; absorbance at 280, 650 and 665 nm; oligomer peak at 10-11 mL
[3] = biological target: voltage-gated potassium ion channel KvAP (Aeropyrum pernix) (UniProt Q9YDF8); test: native gel or EMSA; high-resolution clear native PAGE (hrCNE) with 0.01% DDM and 0.05% sodium deoxycholate, Glyco-DIBMA nanodiscs, 4 °C, fluorescence imaging
[4] = biological target: voltage-gated potassium ion channel KvAP (Aeropyrum pernix) (UniProt Q9YDF8); test: fluorescence correlation spectroscopy (molecular brightness per nanodisc); Alexa Fluor 647-labelled protein in Glyco-DIBMA native nanodiscs; oligomer fraction after SEC and bands resolubilised from native gels; brightness compared with the free dye (ruler, 7.5 kHz); nM concentrations; standard buffer 150 mM NaCl or KCl, 50 mM Tris-HCl, pH 8
[5] = biological target: voltage-gated potassium ion channel KvAP (Aeropyrum pernix) (UniProt Q9YDF8); test: as above; remark: listed apart in the source
[6] = biological target: voltage-gated sodium ion channel NavMs; test: SEC; Glyco-DIBMA native nanodiscs with labelled protein after Ni2+ affinity chromatography; absorbance at 280, 650 and 665 nm; oligomer peak at 10-11 mL
[7] = biological target: voltage-gated sodium ion channel NavMs; test: native gel or EMSA; high-resolution clear native PAGE (hrCNE) with 0.01% DDM and 0.05% sodium deoxycholate, Glyco-DIBMA nanodiscs, 4 °C, fluorescence imaging
[8] = biological target: voltage-gated sodium ion channel NavMs; test: fluorescence correlation spectroscopy (molecular brightness per nanodisc); Alexa Fluor 647-labelled protein in Glyco-DIBMA native nanodiscs; oligomer fraction after SEC and bands resolubilised from native gels; brightness compared with the free dye (ruler, 7.5 kHz); nM concentrations; standard buffer 150 mM NaCl or KCl, 50 mM Tris-HCl, pH 8
[9] = biological target: the molecule itself; test: SEC; Glyco-DIBMA native nanodiscs with labelled protein after Ni2+ affinity chromatography; absorbance at 280, 650 and 665 nm; oligomer peak at 10-11 mL
[10] = biological target: the molecule itself; test: fluorescence correlation spectroscopy (molecular brightness per nanodisc); Alexa Fluor 647-labelled protein in Glyco-DIBMA native nanodiscs; oligomer fraction after SEC and bands resolubilised from native gels; brightness compared with the free dye (ruler, 7.5 kHz); nM concentrations; standard buffer 150 mM NaCl or KCl, 50 mM Tris-HCl, pH 8

voltage-gated potassium ion channel KvAP (from UniProt Q9YDF8 1-295) (natural protein)
stoichiometry N [1]: 4 | stoichiometry N [2]: 4 | stoichiometry N [3]: 4 | ratio of molecular brightness to the free dye (taken as the oligomeric state) [4]: 5.5 fold | ratio of molecular brightness to the free dye (taken as the oligomeric state) [5]: 4 fold

voltage-gated sodium ion channel NavMs (natural protein)
stoichiometry N [6]: 4 | stoichiometry N [7]: 4 | ratio of molecular brightness to the free dye (taken as the oligomeric state) [8]: 3 fold

B1: glycerol uptake facilitator protein (GlpF) (natural protein, UniProt P0AER0 1-281, looked up)
chain: MSQTSTLKGQCIAEFLGTGLLIFFGVGCVAALKVAGASFGQWEISVIWGLGVAMAIYLTAGVSGAHLNPAVTIALWLFACFDKRKVIPFIVSQVAGAFCAAALVYGLYYNLFFDFEQTHHIVRGSVESVDLAGTFSTYPNPHINFVQAFAVEMVITAILMGLILALTDDGNGVPRGPLAPLLIGLLIAVIGASMGPLTGFAMNPARDFGPKVFAWLAGWGNVAFTGGRDIPYFLVPLFGPIVGAIVGAFAYRKLIGRHLPCDICVVEEKETTTPSEQKASL
modifications: Alexa Fluor 647 maleimide on cysteine (six cysteine positions, not all can be labeled)
notes: glycerol uptake facilitator protein GlpF, a bacterial aquaporin; Studied inside Glyco-DIBMA native nanodiscs; A monomeric fraction was also found; also called bacterial aquaporin; aqua(glycero)porin GlpF
stoichiometry N [9]: 4

B2: urea channel HpUreI L134C (natural protein)
chain: MLGLVLLYVGIVLISNGICGLTKVDPKSTAVMNFFVGGLSIICNIVVITYSALHPTAPVEGAEDIAQVSHHLTSFYGPATGLLFGFTYLYAAINHTFGLDWRPYSWYSLFVAINTIPAAILSHYSDMLDDHKVCGITEGDWWAIIWLAWGVLWLTAFIENILKIPLGKFTPWLAIIEGILTAWIPAWLLFIQHWV
modifications: Alexa Fluor 647 maleimide on the cysteine of L134C
notes: urea channel UreI (HpUreI); Studied inside Glyco-DIBMA native nanodiscs; also called bacterial hexameric urea channel
stoichiometry N [9]: 6 | ratio of molecular brightness to the free dye (taken as the oligomeric state) [10]: 6 fold
